Data set [1] addresses recombinant wild-type ADAMTS13 containing a V5- and a His-tag (wt-rADAMTS13) (human) (UniProt Q76LX8). The data set is described as follows: competition immuno-sorbent assay, fragment 10 nM pre-incubated with wt-rADAMTS13, immobilized pd-VWF.
Data set [2] shares this target. Briefly: cell-based or functional assay.
The target in data set [3] is purified plasma-derived von Willebrand factor (pd-VWF), P04275.
Data set [4] concerns the target T1, purified plasma-derived von Willebrand factor (pd-VWF) (human, UniProt P04275 764-2813).
T1 construct: mature; Multimeric plasma protein; also called full-length VWF; globular full-length VWF
Briefly: BLI (Octet-QK), equilibrium responses, mAb508 on protein A biosensors, pd-VWF in solution, single class of binding sites. Background: BLI is a label-free optical method that tracks binding on a fibre tip over time.
Description: Subsequently, biosensors were incubated with various concentrations purified pd-VWF (0-0.2 mg/ml) and association of VWF was monitored real-time for a 10-min period until equilibrium was reached. Data represent mean±SD of four independent associations and depicted are the calculated responses (shift in nm) at equilibrium versus VWF concentration. The drawn line represents the best fit using a model describing the interaction of a single class of binding sites.
Biolayer interferometry-analysis: Equilibrium binding assays were performed via biolayer interferometry (BLI)-analysis using Octet-QK equipment (ForteBio, Reading, UK) essentially as described (26). […] Biosensors were then incubated for 5 min in BLI-buffer to achieve stable baseline, and subsequently incubated with various concentrations of pd-VWF in BLI-buffer for 10 min. All incubations were performed at room temperature under continuous shaking (1000 rpm). Data were analyzed using Octet Software version 4.0.

Data set [5] concerns the target T1, purified plasma-derived von Willebrand …. Briefly: competitive immuno-sorbent assay, mAb508 0 to 50 µg/ml against ADAMTS13 (4 µg/ml) on coated VWF (2 µg/ml).

Several values for one entry are separate records, joined by “and”; a condition that tells them apart may be missing. Equal entries are not always repeated.

In general, Kd refers to the constant that tells how readily two partners part at equilibrium. Lower therefore signals higher affinity. One may read the IC50 as the concentration at which inhibition is half-maximal.

Take “A1-Fc (from UniProt P04275 1261-1478) (Fc fusion)”: the inhibition of ADAMTS13 binding to immobilized VWF in data set [1] is less than 20%.
As for “D4-Fc (from UniProt P04275 1947-2301) (Fc fusion)”, the inhibition of ADAMTS13 binding to immobilized VWF in data set [1] is less than 20%.
Still for that read-out and setting: the figure for “D′D3-HPC4 (from UniProt P04275 764-1247)” is less than 20%.
For the molecule “A2-Fc (from UniProt P04275 1480-1672) (Fc fusion)”, in data set [2], the residual proteolysis of VWF by ADAMTS13, vortex-based degradation assay, A2-Fc 1 µg/ml amounted to 96%. Moreover, in data set [1], the inhibition of ADAMTS13 binding to immobilized VWF was found to be 65%.
With “A3-Fc (from UniProt P04275 1681-1878) (Fc fusion)”, the inhibition of ADAMTS13 binding to immobilized VWF in data set [1] was less than 20%.

B1: recombinant wild-type ADAMTS13 containing a V5- and a His-tag (wt-rADAMTS13) (protein)
chain: AAGGILHLELLVAVGPDVFQAHQEDTERYVLTNLNIGAELLRDPSLGAQFRVHLVKMVILTEPEGAPNITANLTSSLLSVCGWSQTINPEDDTDPGHADLVLYITRFDLELPDGNRQVRGVTQLGGACSPTWSCLITEDTGFDLGVTIAHEIGHSFGLEHDGAPGSGCGPSGHVMASDGAAPRAGLAWSPCSRRQLLSLLSAGRARCVWDPPRPQPGSAGHPPDAQPGLYYSANEQCRVAFGPKAVACTFAREHLDMCQALSCHTDPLDQSSCSRLLVPLLDGTECGVEKWCSKGRCRSLVELTPIAAVHGRWSSWGPRSPCSRSCGGGVVTRRRQCNNPRPAFGGRACVGADLQAEMCNTQACEKTQLEFMSQQCARTDGQPLRSSPGGASFYHWGAAVPHSQGDALCRHMCRAIGESFIMKRGDSFLDGTRCMPSGPREDGTLSLCVSGSCRTFGCDGRMDSQQVWDRCQVCGGDNSTCSPRKGSFTAGRAREYVTFLTVTPNLTSVYIANHRPLFTHLAVRIGGRYVVAGKMSISPNTTYPSLLEDGRVEYRVALTEDRLPRLEEIRIWGPLQEDADIQVYRRYGEEYGNLTRPDITFTYFQPKPRQAWVWAAVRGPCSVSCGAGLRWVNYSCLDQARKELVETVQCQGSQQPPAWPEACVLEPCPPYWAVGDFGPCSASCGGGLRERPVRCVEAQGSLLKTLPPARCRAGAQQPAVALETCNPQPCPARWEVSEPSSCTSAGGAGLALENETCVPGADGLEAPVTEGPGSVDEKLPAPEPCVGMSCPPGWGHLDATSAGEKAPSPWGSIRTGAQAAHVWTPAAGSCSVSCGRGLMELRFLCMDSALRVPVQEELCGLASKPGSRREVCQAVPCPARWQYKLAACSVSCGRGVVRRILYCARAHGEDDGEEILLDTQCQGLPRPEPQEACSLEPCPPRWKVMSLGPCSASCGLGTARRSVACVQLDQGQDVEVDEAACAALVRPEASVPCLIADCTYRWHVGTWMECSVSCGDGIQRRRDTCLGPQAQAPVPADFCQHLPKPVTVRGCWAGPCVGQGTPSLVPHEEAAAPGRTTATPAGASLEWSQARGLLFSPAPQPRRLLPGPQENSVQSSACGRQHLEPTGTIDMRGPGQADCAVAIGRPLGEVVTLRVLESSLNCSAGDMLLLWGRLTWRKMCRKLLDMTFSSKTNTLVVRQRCGRPGGGVLLRYGSQLAPETFYRECDMQLFGPWGEIVSPSLSPATSNAGGCRLFINVAPHARIAIHALATNMGAGTEGANASYILIRDTHSLRTTAFHGQQVLYWESESSQAEMEFSEGFLKAQASLRGQYWTLQSWVPEMQDPQSWKGKEGT
With B1, the “proteolytic cleavage of pd-VWF (30 µg/ml) by recombinant ADAMTS13 (3 µg/ml), vortex-based degradation assay” value in data set [3] is “proteolytic cleavage of pd-VWF (30 µg/ml) by recombinant ADAMTS13 (3 µg/ml) increases as a function of incubation time, with maximal degradation obtained after 30 min”.

B2: anti-human von Willebrand factor monoclonal antibody 508 (mAb508) (antibody, mouse IgG1, kappa, V domains shown)
VH: DVQLQESGPDLVEPSQSLSLSCTVTGYSITSGYSWHWIRQFPGNKLEWLGYIHYSGTTTYNPSLHSRVSITRDTSKNQFFLQLNSVSTEDTATYFCGREGYHWGQGTTLTVSS
VL: DVVMTQTPLSLPVSLGDQASISCRSSQSLVHSIGNTYLHWYLQKPGQSPKLLIYKVSNRFSGVPDRFSGSGSGTDFTLKISRVEAEDLGVYFCSQTTHVPLTFGGGTRLEIKR
notes: Murine monoclonal antibody purified from hybridoma; also called antibody mAb508
Consider B2, for which, in data set [4], the equilibrium dissociation constant (Kd) was 13 µg/mL and 52 nM. The IC50 in data set [5] was determined as 0.09 µg/mL.

These data come from US20170037148A1 (INSERM INSTITUT NATIONAL DE LA SANT ET DE LA RECHERCHE M …, published 2017).
